For one molecule, Kd results are on record in paper PMC6662825 (2019).

This assay concerns the target T1, MBP-ZCCHC8^91–211-(GS)3-eYFP (human, UniProt Q6NZY4 91-211).
T1 chain: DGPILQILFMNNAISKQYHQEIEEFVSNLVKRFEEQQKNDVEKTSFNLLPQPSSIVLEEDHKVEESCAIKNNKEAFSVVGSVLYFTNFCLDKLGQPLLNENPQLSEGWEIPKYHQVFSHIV
Put plainly: MST.

B1: MTR4-KOW (domain or fragment)
chain: HKPKYCLPFLQPGRLVKVKNEGDDFGWGVVVNFSKKSNVKPNSGELDPLYVVEVLLRCSKESLKNSATEAAKPAKPDEKGEMQVVPVLVHLLSAISSVRLYIPKDLRPVDNRQSVLKSIQEVQKRFPDGIPLLDPIDDMGIQD
As usually defined, the Kd is the equilibrium constant for the complex coming apart. Higher therefore signals a looser complex. Molecule B1 displayed a Kd of 327 nM.
